Measurements: the supplement of paper PMC9112550, “Optimization of the antimicrobial peptide Bac7 by deep mutational scanning” (BMC Biology, 2022)

System: Escherichia coli TOP10
Test: shrunken log2 fold change of peptide-encoding DNA abundance (4.5 h post-induction vs induction); higher = less antimicrobial activity (less host growth inhibition)
Conditions: time post-induction: 4.5 h; library: site-saturation at positions 5, 18, 19, 20
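Further: peptides expressed intracellularly from a pBAD plasmid library in pooled LB shake-flask culture, induced with 0.3% L-arabinose, DNA abundance read by NGS, three biological replicates, DESeq2 with apeglm shrinkage.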

Sequence | shrunken log2 fold change
RRIRLRPPRLPRPRPRPCIAPRP | -0.185
RRIRKRPPRLPRPRPRPMSFPRP | 0.106
RRIRARPPRLPRPRPRPRMEPRP | 0.539
RRIRYRPPRLPRPRPRPDQFPRP | -0.435
RRIRTRPPRLPRPRPRPTSHPRP | -0.478
RRIRSRPPRLPRPRPRPNQSPRP | -0.0432
RRIRSRPPRLPRPRPRPSEDPRP | -0.325
RRIRGRPPRLPRPRPRPYIDPRP | 0.093
RRIRHRPPRLPRPRPRPLCWPRP | -0.0222
RRIRMRPPRLPRPRPRPYNKPRP | -0.561
RRIRPRPPRLPRPRPRPRIGPRP | 0.0981
RRIRYRPPRLPRPRPRPKILPRP | -0.247
RRIRFRPPRLPRPRPRPRYTPRP | -0.15
RRIRGRPPRLPRPRPRPVCIPRP | 0.344
RRIRVRPPRLPRPRPRPGLGPRP | 0.134
RRIRFRPPRLPRPRPRPGFIPRP | -0.257
RRIRYRPPRLPRPRPRPKGFPRP | -0.0319
RRIRARPPRLPRPRPRPWEVPRP | 0.205
RRIRNRPPRLPRPRPRPWPCPRP | -0.185
RRIRYRPPRLPRPRPRPPEIPRP | -0.0815
RRIRHRPPRLPRPRPRPQMTPRP | -0.104
RRIRKRPPRLPRPRPRPTHKPRP | 0.658
RRIRTRPPRLPRPRPRPEWFPRP | 0.0821
RRIRCRPPRLPRPRPRPQLGPRP | -0.00405
RRIRTRPPRLPRPRPRPGQPPRP | 0.161

Sequence | shrunken log2 fold change
RRIRDRPPRLPRPRPRPYAAPRP | -0.2
RRIRLRPPRLPRPRPRPQVCPRP | -0.00713
RRIRTRPPRLPRPRPRPRHSPRP | -0.106
RRIRARPPRLPRPRPRPFYPPRP | -0.104
RRIRWRPPRLPRPRPRPHHPPRP | 0.0415
RRIRHRPPRLPRPRPRPHPMPRP | -0.076
RRIRDRPPRLPRPRPRPWATPRP | 0.0691
RRIRPRPPRLPRPRPRPMHYPRP | -0.336
RRIRPRPPRLPRPRPRPYDKPRP | -0.512
RRIRNRPPRLPRPRPRPGIFPRP | -0.0122
RRIRFRPPRLPRPRPRPYMHPRP | -0.72
RRIRHRPPRLPRPRPRPNEWPRP | -0.0925
RRIRTRPPRLPRPRPRPRAMPRP | 0.41
RRIRQRPPRLPRPRPRPAMVPRP | 0.206
RRIRERPPRLPRPRPRPPLGPRP | 0.0751
RRIRYRPPRLPRPRPRPAMIPRP | -0.229
RRIRSRPPRLPRPRPRPYAMPRP | -0.909
RRIRARPPRLPRPRPRPTIQPRP | 0.0396
RRIRHRPPRLPRPRPRPAMKPRP | 0.0279
RRIRTRPPRLPRPRPRPPDGPRP | -0.0813
RRIRNRPPRLPRPRPRPKYDPRP | -0.624
RRIRCRPPRLPRPRPRPVERPRP | 0.0133
RRIRMRPPRLPRPRPRPQSCPRP | -0.00838
RRIRCRPPRLPRPRPRPGCKPRP | 0.0416
RRIRCRPPRLPRPRPRPNPQPRP | -0.359
